Experiment: soluble on expression in E. coli; label from the status in PepcDB or PDB records

Soluble on expression in E. coli, not soluble:
MGSDKIHHHHHHMQPSAVTNTTNLTASPSQFYTWQNYRCTYEIHQPTNTTSEGIPLLLIHPIGVGLSRQFWQRFCHEWYNSGQRNSIYNPDLLGCGESDMPHLAYTPSDWAEQLQYFLQTVVRQPVIVVVQGALLPVAIALVQKESNLISRLVLSGPPTWALMTNKPPEWQQKFIWNVLDSPLGIPFYRYARTPKFLRSFSTRQLFASESAVDAEWLNTLVAGAENPASRHAVFSFLAGFWRQDYTNFMASIQQPTLAVVGETASSISQNNKKETPDDRLANYLACFPQSRGIKINGRNVLPYESTAEFVAAIAPFINEVS
MGSDKIHHHHHHMQPYYWESAHGNFGDDLNLWLWDFLMPGFRDVHPETLLVGVGTVLNRALLPEGQHKLVIGSGFGYGSLPDMSRPEEWDIRSVRGPLTAKALGLPPEKGVIDPAVMLADMPEFQKLPKLYKKSFVPHWESAVAGVWASIVPKVGLTYIDPCGEAKAVIRQILQSEVIIAESMHGAIIADALRVPWVAVSTSASINSFKWNDWASTLGVTYKPLRVPLSSRAEAQIKGESFWGMSFKNHQPAPENPNDLAVDAAVLEQARGPKQTGLRTAVKQILAGPAMLNLWKASQAEPQLSRDSVLQERKARFLEVIEGVRRDYGIAAVS
MGSDKIHHHHHHMQRDLGKNVKLFNDIKADDLSVMLSCLGVKNQQYEKRSIIIMAEDNVDHVGVVLRGAVLIVKEDFSGNRSIVDHIGQYEMFGEAFACAGIQKSPVTVVAAEKSEIMWIQFRRIFNTCSMSCVFHAKLIENMMKVLAVKNLQMNQKLEITSKRNLRDKLMAYLLIQAKEAKSFDFIIPLNRSELADYLYVDRSALSRELCKMRDEGLIEFKKNHFCMSPM
MGSDKIHHHHHHMQRKKIGVALGSGAAKGWAHIGVLNALTEMGIEVDVVAGCSIGALVGAAYATNNLSSMDRWVRSFGYWDVIRLMDLSWQRGSLLRGDRVFNSVKHLLHTTQIEDCDIKYGVVTTNLSTGRELWLTEGDLHQAMRASCSMPGLLSPVRFNDYWLVDGAVVNPVPVSLARAMGADIVIAVDLQHDASLNHQDLLSIKPTASDIDAENVPQDWRSRIRERLLRGRRHPAESSPTAMEIMSTSIQILENRLKMTRMAGDPPDVLLQPHCPQIATLDFHRAQEAIDAGYKAVEKMRDELLPLAKEA
MGSDKIHHHHHHMQSLPHDVVGYARDYRDGYVSVRHRHPRHQLIYAISGLMMAETDAMSHAIPPGYGLIVPAQQPHEIRMIGAVRLQSLYVRAGLPRADALARCRLVTISPLLAQLIAALCEMANPWPMPPRALHLSQLILIELLAAPVSPLALPYPTDPRLRRVCDGLIATPASPRSLDDWAAEAGMSRRTFSRHFQLETGLSFGKWAQRLRCQAALRGLAKGRPAARVARELGYANAYTMAAMMRRMT
MGSDKIHHHHHHMRAEIRNLNVKGGHYYLELAEKDADTDKVIASCKATIWKFSASKIVLKFERETGIELASDLNVLIKIRARFDPQYGFSVNIEEIDSSFTLGEIAKRYQQIVERLTQEGLIHKNKLLPTPFDIQNVLVIAPQNAAGLGDFKKDADALERNGVCHFVYQSATFQGNTAAVSLMESLATGLKQWANNFNFPPDLIVIIRGGGAVNDLAYLNDYELAALLCKRSVPIWVGIGHEKDRTILDEIAHRSFDTPSKVIAGIRNHIVERVQEAVDNLQTIKLLSQHQITTYQSKSDQYLQHIKSSAQAQLNSAHQFLEQIKERIQFVSQQQVKFSLSQTESLMREILLQNPKQIQAKGYAIVRSEGKAIRSIHQITNSTITVDMQDGAINANITEVIPNE
MGSDKIHHHHHHMRDLLQRPDLFSINTATLGYKTPLPAIIDACAARGIGAIAPWRRELQGEDLQQITRQLAASNMSVSGLCRSTYYTAPTLAERKLAIDDNRRALDDAAVLNAACYMQVVGGLPTGTKDLYEAREQVKQGIRQLLPHSKDVGVPIALEPLHPMTAADRSCLCTLRQALDWCDELDPDGEFGLGVAVDVYHVWWDPDLASQILRAGKRILAFHVSDWLMPTTDLVNDRGMPGDGVINIPSIRRLVENAGFNGAIELEIFSPYWWQKDINSTGNDSNLLIVFYVQIMPDDLVMQLHRF

Reference: the DeepSol protein solubility set
